From patent US20080206268A1
One block for each binder: values may come before it.

What was measured:
[1] = molecular target: HLA-B60 on HLA typed EBV-LCLs (human); experiment: cell-based competition assay, flow cytometry
[2] = molecular target: HLA-B60 on HLA typed EBV-LCLs (human); experiment: cell-based competition on acid-treated EBV-LCLs against 150 nM fluorescent reference peptide, flow cytometry
[3] = molecular target: recombinant HLA-A2.1 protein and b2-microglobulin (human); experiment: cell-free competition assay on recombinant HLA-A2.1, against HA-1^H peptide [..] as reference; settings: remark: other sources report otherwise
[4] = molecular target: HLA-B60 on HLA typed EBV-LCLs (human); experiment: cell-based competition assay, flow cytometry; remark: listed apart in the source
[5] = molecular target: HLA-B60 on HLA typed EBV-LCLs (human); experiment: cell-based competition on acid-treated EBV-LCLs against 150 nM fluorescent reference peptide, flow cytometry; remark: listed apart in the source
[6] = molecular target: HLA-A3 on HLA typed EBV-LCLs (human); experiment: as above
[7] = molecular target: HLA-A2 on HLA typed EBV-LCLs (human); experiment: as above; settings: remark: other sources report otherwise

IC50 [1]: 1.6 to 5.3 µM | IC50 [2]: 1.6 µM
Binder: KECVLRDDLL [decameric HA-1^R peptide …]

IC50 [4]: 1.6 to 5.3 µM | IC50 [5]: 5.3 µM
Binder: KECVLHDDL (modifications not checked) [nonameric HA-1^H peptide …]

IC50 [6]: 15.6 µM
Binder: VLHDDLLEAR (modifications not checked)

IC50 [2]: 1 µM
Binder: KECVLHDDLL

The remaining lines, values behind:

Binder: VLRDDLLEA [HA-1^R peptide …]
fold lower binding affinity than the HA-1^H peptide [3]: 10 fold

Binder: KESTLHLVL [HLA-B60 binder-positive control peptide …]
IC50 [2]: 1.1 µM

Binder: VLHDDLLEA [HA-1^H peptide …]
IC50 [7]: 6.4 µM
